Laboratory results reported in patent EP4810515A1 (Shanghai Haiju Biological Technology Co., Ltd., dated 2026).

T1: human GDF15 recombinant protein (ACRO, GD5-H5149) (human, UniProt Q99988 197-308)
T1 construct: also called hGDF-15.His; hGDF15; not shown: His tag
T1 sequence (looked up): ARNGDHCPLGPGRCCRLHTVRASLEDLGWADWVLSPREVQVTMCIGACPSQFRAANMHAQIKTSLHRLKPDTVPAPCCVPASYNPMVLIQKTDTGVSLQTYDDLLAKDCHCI

T2: mouse GDF15 recombinant protein (Kactus, GDF-MM215) (mouse, UniProt Q9Z0J7 189-303, limits assumed)
T2 construct: also called mGDF-15.hFc; murine GDF15; not shown: human Fc (hFc)
T2 sequence (looked up): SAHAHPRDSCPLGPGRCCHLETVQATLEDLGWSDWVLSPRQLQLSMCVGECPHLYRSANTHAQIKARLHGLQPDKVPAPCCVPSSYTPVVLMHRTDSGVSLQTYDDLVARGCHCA

T3: cynomolgus monkey GDF15 recombinant protein (Kactus, GDF-CM215) (cynomolgus monkey, UniProt G7PWZ3 197-308, limits assumed)
T3 construct: also called cynoGDF-15.hFc; cynoGDF15; not shown: human Fc (hFc)
T3 sequence (looked up): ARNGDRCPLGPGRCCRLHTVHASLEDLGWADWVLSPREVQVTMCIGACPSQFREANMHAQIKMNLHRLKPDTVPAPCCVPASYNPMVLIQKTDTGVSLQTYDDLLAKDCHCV


Key:
[1] = target: T1, human GDF15 recombinant protein (ACRO, …); assay: ELISA, coated hGDF-15.His
[2] = target: T2, mouse GDF15 recombinant protein …; assay: ELISA, coated mGDF-15.hFc 2 ug/mL
[3] = target: T3, cynomolgus monkey GDF15 recombinant …; assay: ELISA, coated cynoGDF-15.hFc
[4] = target: T1, human GDF15 recombinant protein (ACRO, …); assay: cell-based or functional assay

Row | EC50 [1] [nM] | binding result [2] | EC50 [3] [nM] | IC50, reporter gene cell strain (mGFRAL) [4] [µg/mL] | Binder
1 | 0.00393 | no binding | 0.13 | – | G2-CH17 (antibody, human IgG1, kappa, V domains shown, chimeric: murine variable regions on human IgG1 constant region mutant (LALAGA, -K)) VH: QVTLKESGPGILQPSQTLSLTCSFSGFSLNTSGMGVSWIRQPSGKGLEWLAHIYWDDDKRYNPSLKSRLTISKDTSRNQVFLKITGVDTADTAAYYCARTGWDFFDIWGQGTTLTVSS VL: DIVMTQSQKFMSTSVGDRVSVTCKASQNVGSNVAWYQQKPGQSPKALIYSASYRYSGVPDRFTGSGSGTDFTLTITNVQSEDLAEYFCQQYKSYPLTFGAGTKLELKR
2 | – | – | – | 0.116 | G2-CH8-LP1-hIgG1 (LALAGA, -K) (antibody, V domains shown) VH: QVTLKESGPGILQPSQTLSLTCSFSGFSLSTYGIGVGWIRQPSGKGLEWLAHIWWNDNKYYNTALKSRLTISKDTSNNQVFLKIASVDTADTATYYCARLAYDYVDSWGQGTTLTVSS VL: DIVMTQAAFSNPVTLGTSASISCRSSKSLLHSNAITYLYWYLQKPGQSPQLLIYQMSNLVSGVPDRFSSSGSGTDFTLRISRVEAEDVGVYYCAQNLELPPTFGAGTKLELKR
3 | – | – | – | 0.081 | G2-CH8-LP3-hIgG1 (LALAGA, -K) (antibody, V domains shown) VH: QVTLKESGPGILQPSQTLSLTCSFSGFSLSTYGIGVGWIRQPSGKGLEWLAHIWWNDNKYYNTALKSRLTISKDTSNNQVFLKIASVDTADTATYYCARLAYDYVDSWGQGTTLTVSS VL: DIVMTQAAFSNPVTLGTSASISCRSSKSLLHSEGITYLYWYLQKPGQSPQLLIYQMSNLVSGVPDRFSSSGSGTDFTLRISRVEAEDVGVYYCAQNLELPPTFGAGTKLELKR
4 | – | – | – | 0.1 | G2-CH8-LP2-hIgG1 (LALAGA, -K) (antibody, V domains shown) VH: QVTLKESGPGILQPSQTLSLTCSFSGFSLSTYGIGVGWIRQPSGKGLEWLAHIWWNDNKYYNTALKSRLTISKDTSNNQVFLKIASVDTADTATYYCARLAYDYVDSWGQGTTLTVSS VL: DIVMTQAAFSNPVTLGTSASISCRSSKSLLHSNQITYLYWYLQKPGQSPQLLIYQMSNLVSGVPDRFSSSGSGTDFTLRISRVEAEDVGVYYCAQNLELPPTFGAGTKLELKR
5 | – | – | – | 0.142 | G2-CH5-HP2-hIgG1 (LALAGA, -K) (antibody, V domains shown) VH: EVLLQQSGPELVKPGASVKIACKASGYTLTDYNLNWVKQSHGKSLEWIGDLNPYNQGIIYNQKFKGKATLTVDKSSSTAYMELRSLTSEDIAVYYCAREGRGGAWFDSWGQGTLVTVSA VL: DIQMTQSSSSFSVSLGDRVTITCKASEDIYHRLAWYQQKPGNAPRLLISGATSLETGIPSRFSGSGSGKDYALSITSLQTEDVGTYYCQQYWSPPFTFGSGTKLEIKR
